For the data set, the system named is Pho7 DBD, Pho7(279-368) (Schizosaccharomyces pombe). Briefly: EMSA. The settings on record: EMSA: 50 mM Tris-HCl pH 7.4, 10% glycerol, 340 ng poly(dI-dC), 0.6-1 pmol DNA in 10 ul, about 50 mM NaCl and 0.02% Triton X-100 from 2 ul protein diluent …; for binding signal: 27 ng Pho7 DBD, 1 pmol DNA. A general note: In EMSA bound probe runs differently from free probe, usually more slowly.

With “CAACAGGGGAATAGTCGCTGCTTGAAACATCCGGAAATAG (double strand) [pho1 site 1 40-bp DNA]”, for the setting “8.3-66 ng Pho7 DBD”, the binding signal (fold affinity vs site 2 (N5)) stood at 0.5. “CCGGAAATAGTTTTATTCGGAAATTAAAAACAAGTTTATGGCG (double strand) [pho1 site 2 43-bp DNA]” displayed a binding signal (fold affinity vs site 1 (N4)) (8.3-66 ng Pho7 DBD) of 2.

“TTTCCTTCGGACAAACAAATCAGT (double strand) [tgp1 24-bp Mut2 (TT to AA)]” registered a binding signal of 45 % DNA bound.

With “TTTCCTTCGGACATTCAAATCAGT (double strand) [tgp1 24-bp WT]”, the binding signal turned out to be 81 % DNA bound.

On to “TTTCCTTCGGACATTCTTATCAGT (double strand) [tgp1 24-bp Mut3 (AA to TT)]”, for which the binding signal was found to be 23 % DNA bound.
